Read-outs that look alike come from different tables or passages of the source.
How the values were obtained:
[1] = target: T1, Cas12c2 (UniProt PDB:7V94_1 1-1232); assay: cryo-EM
T1 sequence: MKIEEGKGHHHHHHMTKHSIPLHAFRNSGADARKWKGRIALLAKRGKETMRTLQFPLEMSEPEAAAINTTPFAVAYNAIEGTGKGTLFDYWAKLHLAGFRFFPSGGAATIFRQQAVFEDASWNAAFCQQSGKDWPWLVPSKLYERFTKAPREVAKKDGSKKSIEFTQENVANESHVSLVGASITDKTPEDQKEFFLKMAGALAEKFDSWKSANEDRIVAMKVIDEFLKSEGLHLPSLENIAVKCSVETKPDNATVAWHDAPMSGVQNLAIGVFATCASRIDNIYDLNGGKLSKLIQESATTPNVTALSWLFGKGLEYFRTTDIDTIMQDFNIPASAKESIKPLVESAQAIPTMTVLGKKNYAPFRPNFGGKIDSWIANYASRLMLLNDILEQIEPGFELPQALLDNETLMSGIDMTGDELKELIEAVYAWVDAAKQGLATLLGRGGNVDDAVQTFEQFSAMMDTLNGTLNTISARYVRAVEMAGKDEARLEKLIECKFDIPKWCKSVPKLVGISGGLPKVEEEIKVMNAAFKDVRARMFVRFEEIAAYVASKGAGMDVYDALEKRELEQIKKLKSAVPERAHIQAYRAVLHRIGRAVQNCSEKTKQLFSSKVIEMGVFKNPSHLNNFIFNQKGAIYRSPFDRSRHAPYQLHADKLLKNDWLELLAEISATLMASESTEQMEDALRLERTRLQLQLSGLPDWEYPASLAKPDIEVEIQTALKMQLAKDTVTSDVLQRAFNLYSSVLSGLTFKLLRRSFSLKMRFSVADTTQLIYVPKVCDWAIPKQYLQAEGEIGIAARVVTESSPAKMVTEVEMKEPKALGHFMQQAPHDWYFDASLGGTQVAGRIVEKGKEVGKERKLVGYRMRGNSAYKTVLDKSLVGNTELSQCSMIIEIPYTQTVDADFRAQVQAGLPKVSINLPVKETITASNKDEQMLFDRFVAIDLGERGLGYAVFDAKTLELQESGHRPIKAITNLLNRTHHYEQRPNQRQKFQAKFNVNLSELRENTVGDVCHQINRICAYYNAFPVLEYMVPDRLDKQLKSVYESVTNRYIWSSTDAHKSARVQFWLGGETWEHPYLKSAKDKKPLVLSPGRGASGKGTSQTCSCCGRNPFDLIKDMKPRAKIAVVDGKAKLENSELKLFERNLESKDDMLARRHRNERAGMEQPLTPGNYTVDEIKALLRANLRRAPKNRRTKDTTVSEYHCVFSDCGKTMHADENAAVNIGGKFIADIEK

[2] = target: T1, Cas12c2; assay: cryo-EM; remark: listed apart in the source

B1: Cas12c2 sgRNA (112 nt) (structured_RNA)
RNA: GGAUACCACCCGUGCAUUUCUGGAUCAAUGAUCCGUACCUCAAUGUCCGGGCGCGCAGCUAGAGCGACCUGAAGAAAUUCAGGUUGGGUUUGAGGGGAAAUUAGGUGCGCUU
Question: Does B1 bind [1]?
Answer: binds

B2: sgRNA + 33-bp target DNA, TG PAM (guide/target strand/non-target strand) (mixed)
RNA: GGAUACCACCCGUGCAUUUCUGGAUCAAUGAUCCGUACCUCAAUGUCCGGGCGCGCAGCUAGAGCGACCUGAAGAAAUUCAGGUUGGGUUUGAGGGGAAAUUAGGUGCGCUU
DNA 1: AGGTTGCCAAGCGCACCTAATTTCCCATTTTAG
DNA 2: CTAAAATGGGAAATTAGGTGCGCTTGGCAACCT
Question: Does B2 bind [2]?
Answer: binds
